Target: T1, carbamylphosphate synthetase 1 (CPS1), endogenous in mouse liver mitochondria (mouse (endogenous in mouse liver …, UniProt Q8C196 39-1500))
T1 construct: carbamylphosphate synthetase 1, mouse, endogenous in liver mitochondria; also called CPSI; source: endogenous, mouse liver mitochondria, lysate (PBS with 2% CHAPS)
T1 sequence (looked up): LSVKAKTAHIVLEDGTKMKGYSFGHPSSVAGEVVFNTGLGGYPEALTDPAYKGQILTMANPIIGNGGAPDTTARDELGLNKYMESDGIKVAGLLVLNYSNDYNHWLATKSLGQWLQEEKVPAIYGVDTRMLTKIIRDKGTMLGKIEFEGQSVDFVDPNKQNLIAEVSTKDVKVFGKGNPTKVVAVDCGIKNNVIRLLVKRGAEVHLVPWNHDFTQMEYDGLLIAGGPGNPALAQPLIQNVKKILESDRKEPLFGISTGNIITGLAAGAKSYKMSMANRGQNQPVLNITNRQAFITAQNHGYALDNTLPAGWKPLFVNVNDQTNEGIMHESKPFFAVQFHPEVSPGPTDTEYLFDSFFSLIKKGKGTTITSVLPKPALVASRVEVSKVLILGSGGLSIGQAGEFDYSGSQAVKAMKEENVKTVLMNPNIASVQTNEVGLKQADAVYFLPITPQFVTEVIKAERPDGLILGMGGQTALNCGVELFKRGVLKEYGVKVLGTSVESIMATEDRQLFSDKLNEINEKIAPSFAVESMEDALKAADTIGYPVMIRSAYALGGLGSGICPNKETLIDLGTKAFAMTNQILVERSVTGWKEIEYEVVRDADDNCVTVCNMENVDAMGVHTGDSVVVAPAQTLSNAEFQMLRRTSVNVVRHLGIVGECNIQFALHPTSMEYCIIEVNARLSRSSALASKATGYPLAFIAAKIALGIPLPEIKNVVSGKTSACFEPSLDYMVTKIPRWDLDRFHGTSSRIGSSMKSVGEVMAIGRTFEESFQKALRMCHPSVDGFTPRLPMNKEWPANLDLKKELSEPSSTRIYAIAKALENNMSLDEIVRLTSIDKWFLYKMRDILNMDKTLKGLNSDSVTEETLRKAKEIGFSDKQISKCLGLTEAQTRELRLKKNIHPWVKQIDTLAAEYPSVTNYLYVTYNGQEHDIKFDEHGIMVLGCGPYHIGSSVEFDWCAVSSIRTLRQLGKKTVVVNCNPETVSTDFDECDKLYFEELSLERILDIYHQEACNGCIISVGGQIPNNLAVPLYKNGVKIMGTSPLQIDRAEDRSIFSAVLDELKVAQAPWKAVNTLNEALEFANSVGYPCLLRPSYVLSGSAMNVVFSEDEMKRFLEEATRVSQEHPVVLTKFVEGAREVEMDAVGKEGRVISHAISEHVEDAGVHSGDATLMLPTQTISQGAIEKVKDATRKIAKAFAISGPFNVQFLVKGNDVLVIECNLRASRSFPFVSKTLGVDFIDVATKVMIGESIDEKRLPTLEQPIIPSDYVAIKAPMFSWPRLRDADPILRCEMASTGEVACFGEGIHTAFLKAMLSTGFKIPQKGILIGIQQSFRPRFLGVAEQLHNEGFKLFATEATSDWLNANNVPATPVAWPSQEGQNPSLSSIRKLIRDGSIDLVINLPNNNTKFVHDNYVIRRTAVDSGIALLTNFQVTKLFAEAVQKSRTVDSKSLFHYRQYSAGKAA
Test: co-IP; competition experiment: purified recombinant mVS (10 to 30-fold molar excess over CPS1) mixed 1:1 (v/v) with mitochondrial lysate (2 mg/ml protein), added to magnetic beads cross-linked to anti-CPS1 antibodies; immunoblot for NAGS, densitometry of NAGS-M bands
Conditions: one partner purified

B1: recombinant mouse variable segment (mVS) of NAGS (domain or fragment, UniProt Q8R4H7 49-117, looked up)
chain: LSTARAHAEDAEGAKGRVQSPAVEEPSWTPLPTPLESPAPPAGRSLVQRDIQAFLNQCGASPGEARHWL
notes: Predicted molecular weight 9.675 kDa as printed
Question: B1 was tested. Which “fold decrease of mNAGS co-immunoprecipitated with CPS1 in the presence of mVS” value did it give?
Answer: 5 fold

— article PMC7860981, “Mitochondrial Enzymes of the Urea Cycle Cluster at the Inner Mitochondrial Membrane” (Frontiers in Physiology, 2020)
